Measured values from patent US20210388087A1 (Chugai, published 2021).
Substitutions are numbered along the chain they refer to. In names and notes the source's numbering stands.

B1: H183/L072 VH S30E (antibody, name in Kabat numbering, V domains shown)
VH: QVQLVESGGGLVQPGRSLRLSCAASGFTFENAWMHWVRQAPGKGLEWVAQIKDKGNAYAAYYAPSVKGRFTISRDDSKNSIYLQMNSLKTEDTAVYYCHYVHYASASTVLPAFGVDAWGQGTTVTVSS
VL: DIVMTQSPLSLPVTPGEPASISCQASQELVHMNRNTYLHWYQQKPGQAPRLLIYKVSNRFPGVPDRFSGSGSGTDFTLKISRVEAEDVGVYYCAQGTSVPFTFGQGTKLEIK
B2: H183/L072 VH S99A (antibody, name in Kabat numbering, V domains shown)
VH: B1 VH with E30S, S105A
VL: B1 VL
B3: H183/L072 VH T28G (antibody, name in Kabat numbering, V domains shown)
VH: B1 VH with T28G, E30S
VL: B1 VL
B4: H183/L072 VH S100aA (antibody, name in Kabat numbering, V domains shown)
VH: B1 VH with E30S, S107A
VL: B1 VL
B5: H183/L072 VH S30R (antibody, name in Kabat numbering, V domains shown)
VH: B1 VH with E30R
VL: B1 VL
B6: H183/L072 VH T28E (antibody, name in Kabat numbering, V domains shown)
VH: B1 VH with T28E, E30S
VL: B1 VL
B7: H183/L072 VH S30G (antibody, name in Kabat numbering, V domains shown)
VH: B1 VH with E30G
VL: B1 VL
B8: H183/L072 VH S100aL (antibody, name in Kabat numbering, V domains shown)
VH: B1 VH with E30S, S107L
VL: B1 VL
B9: H183/L072 VH T28M (antibody, name in Kabat numbering, V domains shown)
VH: B1 VH with T28M, E30S
VL: B1 VL
B10: H183/L072 VH S30Y (antibody, name in Kabat numbering, V domains shown)
VH: B1 VH with E30Y
VL: B1 VL
B11: H183/L072 VH S30L (antibody, name in Kabat numbering, V domains shown)
VH: B1 VH with E30L
VL: B1 VL
B12: H183/L072 VH S30F (antibody, name in Kabat numbering, V domains shown)
VH: B1 VH with E30F
VL: B1 VL
B13: H183/L072 VH S99L (antibody, name in Kabat numbering, V domains shown)
VH: B1 VH with E30S, S105L
VL: B1 VL
B14: H183/L072 VH S30T (antibody, name in Kabat numbering, V domains shown)
VH: B1 VH with E30T
VL: B1 VL
B15: H183/L072 VH T100bI (antibody, name in Kabat numbering, V domains shown)
VH: B1 VH with E30S, T108I
VL: B1 VL
B16: H183/L072 VH S30N (antibody, name in Kabat numbering, V domains shown)
VH: B1 VH with E30N
VL: B1 VL
B17: H183/L072 VH T28P (antibody, name in Kabat numbering, V domains shown)
VH: B1 VH with T28P, E30S
VL: B1 VL
B18: H183/L072 VH S30V (antibody, name in Kabat numbering, V domains shown)
VH: B1 VH with E30V
VL: B1 VL
B19: H183/L072 VH S62P (antibody, name in Kabat numbering, V domains shown)
VH: B1 VH with E30S, S65P
VL: B1 VL
B20: H183/L072 VH S30I (antibody, name in Kabat numbering, V domains shown)
VH: B1 VH with E30I
VL: B1 VL
B21: H183/L072 VH S30K (antibody, name in Kabat numbering, V domains shown)
VH: B1 VH with E30K
VL: B1 VL
B22: H183/L072 VH S100aM (antibody, name in Kabat numbering, V domains shown)
VH: B1 VH with E30S, S107M
VL: B1 VL
B23: H183/L072 VH S30M (antibody, name in Kabat numbering, V domains shown)
VH: B1 VH with E30M
VL: B1 VL
B24: H183/L072 VH S30H (antibody, name in Kabat numbering, V domains shown)
VH: B1 VH with E30H
VL: B1 VL
B25: H183/L072 VH T28K (antibody, name in Kabat numbering, V domains shown)
VH: B1 VH with T28K, E30S
VL: B1 VL
B26: H183/L072 VH S30Q (antibody, name in Kabat numbering, V domains shown)
VH: B1 VH with E30Q
VL: B1 VL
B27: H183/L072 VH S62L (antibody, name in Kabat numbering, V domains shown)
VH: B1 VH with E30S, S65L
VL: B1 VL
B28: H183/L072 VH S100aI (antibody, name in Kabat numbering, V domains shown)
VH: B1 VH with E30S, S107I
VL: B1 VL
B29: H183/L072 VH S62M (antibody, name in Kabat numbering, V domains shown)
VH: B1 VH with E30S, S65M
VL: B1 VL
B30: H183/L072 VH T28W (antibody, name in Kabat numbering, V domains shown)
VH: B1 VH with T28W, E30S
VL: B1 VL
B31: H183/L072 VH S99M (antibody, name in Kabat numbering, V domains shown)
VH: B1 VH with E30S, S105M
VL: B1 VL
B32: H183/L072 VH T100bA (antibody, name in Kabat numbering, V domains shown)
VH: B1 VH with E30S, T108A
VL: B1 VL
B33: H183/L072 VH S30W (antibody, name in Kabat numbering, V domains shown)
VH: B1 VH with E30W
VL: B1 VL
B34: H183/L072 VH S62A (antibody, name in Kabat numbering, V domains shown)
VH: B1 VH with E30S, S65A
VL: B1 VL
B35: H183/L072 VH T28I (antibody, name in Kabat numbering, V domains shown)
VH: B1 VH with T28I, E30S
VL: B1 VL
B36: H183/L072 VH T28Q (antibody, name in Kabat numbering, V domains shown)
VH: B1 VH with T28Q, E30S
VL: B1 VL
B37: H183/L072 VH T28H (antibody, name in Kabat numbering, V domains shown)
VH: B1 VH with T28H, E30S
VL: B1 VL
B38: H183/L072 VH T28R (antibody, name in Kabat numbering, V domains shown)
VH: B1 VH with T28R, E30S
VL: B1 VL
B39: H183/L072 VH T28Y (antibody, name in Kabat numbering, V domains shown)
VH: B1 VH with T28Y, E30S
VL: B1 VL
B40: H183/L072 VH T28V (antibody, name in Kabat numbering, V domains shown)
VH: B1 VH with T28V, E30S
VL: B1 VL
B41: H183/L072 VH T28A (antibody, name in Kabat numbering, V domains shown)
VH: B1 VH with T28A, E30S
VL: B1 VL
B42: H183/L072 VH S99I (antibody, name in Kabat numbering, V domains shown)
VH: B1 VH with E30S, S105I
VL: B1 VL
B43: H183/L072 VH S30P (antibody, name in Kabat numbering, V domains shown)
VH: B1 VH with E30P
VL: B1 VL
B44: H183/L072 VH S62I (antibody, name in Kabat numbering, V domains shown)
VH: B1 VH with E30S, S65I
VL: B1 VL

The binders below were run against T1, Human CD137 ECD (human) (assay: single mutant vs template dBBDu183H).
T1 construct: also called 4-1BB
T1 sequence (chain, as listed by the source limits assumed): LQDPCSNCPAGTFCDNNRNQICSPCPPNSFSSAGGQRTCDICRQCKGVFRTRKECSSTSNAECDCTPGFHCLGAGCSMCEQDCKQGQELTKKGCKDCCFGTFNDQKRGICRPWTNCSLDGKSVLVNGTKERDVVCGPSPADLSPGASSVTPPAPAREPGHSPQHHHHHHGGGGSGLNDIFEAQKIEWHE
For B1, the “fold change of affinity” value was 0.6 fold. For B2, the “fold change of affinity” value was 1.4 fold. For B3, the “fold change of affinity” value was 0.3 fold. B4 was tested, and the “fold change of affinity” value was 0 fold. With B5 the “fold change of affinity” value was 0.7 fold. In the case of B6, the “fold change of affinity” value is reported as 0.3 fold. For B7, the “fold change of affinity” value was 0.9 fold. B8 was tested, and the “fold change of affinity” value was 0 fold. In the case of B9, the “fold change of affinity” value is reported as 0.7 fold. B10 was tested, and the “fold change of affinity” value was 0.5 fold. For B11, the “fold change of affinity” value was 0.5 fold. In the case of B12, the “fold change of affinity” value is reported as 0.7 fold. B13 was tested, and the “fold change of affinity” value was 0.3 fold. For B14, the “fold change of affinity” value was 0.9 fold. For B15, the “fold change of affinity” value was 0 fold. In the case of B16, the “fold change of affinity” value is reported as 0.6 fold. For B17, the “fold change of affinity” value was 0.5 fold. For B18, the “fold change of affinity” value was 0.8 fold. In the case of B19, the “fold change of affinity” value is reported as 0.7 fold. In the case of B20, the “fold change of affinity” value is reported as 0.6 fold. In the case of B21, the “fold change of affinity” value is reported as 0.7 fold. With B22 the “fold change of affinity” value was 0 fold. For B23, the “fold change of affinity” value was 0.8 fold. In the case of B24, the “fold change of affinity” value is reported as 0.6 fold. For B25, the “fold change of affinity” value was 1.1 fold. In the case of B26, the “fold change of affinity” value is reported as 0.7 fold. With B27 the “fold change of affinity” value was 0.9 fold. B28 was tested, and the “fold change of affinity” value was 0 fold. With B29 the “fold change of affinity” value was 0.8 fold. With B30 the “fold change of affinity” value was 0.8 fold. In the case of B31, the “fold change of affinity” value is reported as 0.8 fold. In the case of B32, the “fold change of affinity” value is reported as 0 fold. With B33 the “fold change of affinity” value was 0.5 fold. With B34 the “fold change of affinity” value was 0.7 fold. In the case of B35, the “fold change of affinity” value is reported as 0.8 fold. With B36 the “fold change of affinity” value was 0.5 fold. With B37 the “fold change of affinity” value was 1.1 fold. With B38 the “fold change of affinity” value was 1.5 fold. B39 was tested, and the “fold change of affinity” value was 1.1 fold. With B40 the “fold change of affinity” value was 1.2 fold. With B41 the “fold change of affinity” value was 0.4 fold. In the case of B42, the “fold change of affinity” value is reported as 0 fold. In the case of B43, the “fold change of affinity” value is reported as 0.9 fold. For B44, the “fold change of affinity” value was 0.7 fold.
